Molecular target: trastuzumab (human)
Assay: charge-stabilized self-interaction nanoparticle spectroscopy

CS-SINS score: 0.1
Substance: trastuzumab (antibody)

— paper PMC11757908
